B1: Leucine rich adaptor protein 1 (Homo sapiens), Q96LR2 (parent)
chain: MEGTVESQTPDLRDVEGKVGRKTPEGLLRGLRGECELGTSGALLLPGASSTGHDLGDKIMALKMELAYLRAIDVKILQQLVTLNEGIEAVRWLLEERGTLTSHCSSLTSSQYSLTGGSPGRSRRGSWDSLPDTSTTDRLDSVSIGSFLDTVAPSELDEQGPPGAPRSEMDWAKVIAGGERARTEVDVAATRLGSLRAVWKPPGERLQGGPPESPEDESAKLGFEAHWFWEQCQDDVTFL
partner: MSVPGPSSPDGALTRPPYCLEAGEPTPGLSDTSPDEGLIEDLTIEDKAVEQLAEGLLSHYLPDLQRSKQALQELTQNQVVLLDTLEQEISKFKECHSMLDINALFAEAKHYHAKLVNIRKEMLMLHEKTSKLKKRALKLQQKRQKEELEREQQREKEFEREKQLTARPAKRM
B2: Zinc finger protein with KRAB and SCAN domains 4 (Homo sapiens), Q969J2 (parent)
chain: MAREPRKNAALDAQSAEDQTGLLTVKVEKEEASALTAEVRAPCSPARGPERSRQRFRGFRYPEAAGPREALSRLRELCGQWLQPEMHSKEQILELLVLEQFLTILPGNLQSWVREQHPESGEEVVVLLEYLERQLDEPAPQVPVGDQGQELLCCKMALLTQTQGSQSSQCQPMKALFKHESLGSQPLHDRVLQVPGLAQGGCCREDAMVASRLTPGSQGLLKMEDVALTLTPGWTQLDSSQVNLYRDEKQENHSSLVSLGGEIQTKSRDLPPVKKLPEKEHGKICHLREDIAQIPTHAEAGEQEGRLQRKQKNAIGSRRHYCHECGKSFAQSSGLTKHRRIHTGEKPYECEDCGKTFIGSSALVIHQRVHTGEKPYECEECGKVFSHSSNLIKHQRTHTGEKPYECDDCGKTFSQSCSLLEHHKIHTGEKPYQCNMCGKAFRRNSHLLRHQRIHGDKNVQNPEHGESWESQGRTESQWENTEAPVSYKCNECERSFTRNRSLIEHQKIHTGEKPYQCDTCGKGFTRTSYLVQHQRSHVGKKTLSQ
B3: Break repair meiotic recombinase recruitment factor 1 (Homo sapiens), Q0VDD7 (parent)
chain: MTKRKKLRTSGEGLCPPKPLKNPRLGDFYGDPQSSMLGCLHHPEEPEGKLGPVPSTQQHGEEPGKAVSSSPDEETGSPCRLLRQPEKEPAPLPPSQNSFGRFVPQFAKSRKTVTRKEEMKDEDRGSGAFSLETIAESSAQSPGCQLLVETLGVPLQEATELGDPTQADSARPEQSSQSPVQAVPGSGDSQPDDPPDRGTGLSASQRASQDHLSEQGADDSKPETDRVPGDGGQKEHLPSIDSEGEKPDRGAPQEGGAQRTAGAGLPGGPQEEGDGVPCTPASAPTSGPAPGLGPASWCLEPGSVAQGSPDPQQTPSRMGREGEGTHSSLGCSSLGMVVIADLSTDPTELEERALEVAGPDGQASAISPASPRRKAADGGHRRALPGCTSLTGETTGESGEAGQDGKPPGDVLVGPTASLALAPGSGESMMGAGDSGHASPDTGPCVNQKQEPGPAQEEAELGGQNLERDLEGFRVSPQASVVLEHREIADDPLQEPGAQQGIPDTTSELAGQRDHLPHSADQGTWADSLAVELDFLLDSQIQDALDASDFEAPPEQLFPSGNKPGPCWPGPSSHANGDPVAVAKAQPRTFVGIQASEASRMEDATNVVRGLIVELSNLNRLIMGTHRDLEAFKRLNYRKTKLGGKAPLPYPSKGPGNIPRGDPPWREL
partner: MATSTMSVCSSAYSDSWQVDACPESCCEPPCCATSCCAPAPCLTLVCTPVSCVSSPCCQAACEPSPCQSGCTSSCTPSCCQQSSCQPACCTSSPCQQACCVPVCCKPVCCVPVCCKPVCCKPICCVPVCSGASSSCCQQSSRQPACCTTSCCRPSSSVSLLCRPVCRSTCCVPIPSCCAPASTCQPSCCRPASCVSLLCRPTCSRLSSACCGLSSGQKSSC
B4: Ribose-phosphate pyrophosphokinase 1 (Homo sapiens), P60891 (parent)
chain: MPNIKIFSGSSHQDLSQKIADRLGLELGKVVTKKFSNQETCVEIGESVRGEDVYIVQSGCGEINDNLMELLIMINACKIASASRVTAVIPCFPYARQDKKDKSRAPISAKLVANMLSVAGADHIITMDLHASQIQGFFDIPVDNLYAEPAVLKWIRENISEWRNCTIVSPDAGGAKRVTSIADRLNVDFALIHKERKKANEVDRMVLVGDVKDRVAILVDDMADTCGTICHAADKLLSAGATRVYAILTHGIFSGPAISRINNACFEAVVVTNTIPQEDKMKHCSKIQVIDISMILAEAIRRTHNGESVSYLFSHVPL
B5: Tuftelin-interacting protein 11 (Homo sapiens), Q9UBB9 (parent)
chain: MSLSHLYRDGEGRIDDDDDERENFEITDWDLQNEFNPNRQRHWQTKEEATYGVWAERDSDDERPSFGGKRARDYSAPVNFISAGLKKGAAEEAELEDSDDEEKPVKQDDFPKDFGPRKLKTGGNFKPSQKGFAGGTKSFMDFGSWERHTKGIGQKLLQKMGYVPGRGLGKNAQGIINPIEAKQRKGKGAVGAYGSERTTQSMQDFPVVDSEEEAEEEFQKELSQWRKDPSGSKKKPKYSYKTVEELKAKGRISKKLTAPQKELSQVKVIDMTGREQKVYYSYSQISHKHNVPDDGLPLQSQQLPQSGKEAKAPGFALPELEHNLQLLIDLTEQEIIQNDRQLQYERDMVVNLFHELEKMTEVLDHEERVISNLSKVLEMVEECERRMQPDCSNPLTLDECARIFETLQDKYYEEYRMSDRVDLAVAIVYPLMKEYFKEWDPLKDCTYGTEIISKWKSLLENDQLLSHGGQDLSADAFHRLIWEVWMPFVRNIVTQWQPRNCDPMVDFLDSWVHIIPVWILDNILDQLIFPKLQKEVENWNPLTDTVPIHSWIHPWLPLMQARLEPLYSPIRSKLSSALQKWHPSDSSAKLILQPWKDVFTPGSWEAFMVKNIVPKLGMCLGELVINPHQQHMDAFYWVIDWEGMISVSSLVGLLEKHFFPKWLQVLCSWLSNSPNYEEITKWYLGWKSMFSDQVLAHPSVKDKFNEALDIMNRAVSSNVGAYMQPGARENIAYLTHTERRKDFQYEAMQERREAENMAQRGIGVAASSVPMNFKDLIETKAEEHNIVFMPVIGKRHEGKQLYTFGRIVIYIDRGVVFVQGEKTWVPTSLQSLIDMAK
partner: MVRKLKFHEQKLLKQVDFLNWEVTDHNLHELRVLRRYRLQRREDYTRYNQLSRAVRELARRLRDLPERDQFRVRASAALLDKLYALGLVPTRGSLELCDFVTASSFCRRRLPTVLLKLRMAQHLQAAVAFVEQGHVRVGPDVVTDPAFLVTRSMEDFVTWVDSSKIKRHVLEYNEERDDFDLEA

Variants of: B1
Conditions: with bl1s6_human BLOC1S6, Q9UL45

effect of a mutation on the interaction | Variant
with no effect | M60L
disrupting interaction strength | Q207R

Variants of: B2
Conditions: with zsc32_human ZSCAN32, Q9NX65
Chain of zsc32_human ZSCAN32, Q9NX65 (Q9NX65 whole entry): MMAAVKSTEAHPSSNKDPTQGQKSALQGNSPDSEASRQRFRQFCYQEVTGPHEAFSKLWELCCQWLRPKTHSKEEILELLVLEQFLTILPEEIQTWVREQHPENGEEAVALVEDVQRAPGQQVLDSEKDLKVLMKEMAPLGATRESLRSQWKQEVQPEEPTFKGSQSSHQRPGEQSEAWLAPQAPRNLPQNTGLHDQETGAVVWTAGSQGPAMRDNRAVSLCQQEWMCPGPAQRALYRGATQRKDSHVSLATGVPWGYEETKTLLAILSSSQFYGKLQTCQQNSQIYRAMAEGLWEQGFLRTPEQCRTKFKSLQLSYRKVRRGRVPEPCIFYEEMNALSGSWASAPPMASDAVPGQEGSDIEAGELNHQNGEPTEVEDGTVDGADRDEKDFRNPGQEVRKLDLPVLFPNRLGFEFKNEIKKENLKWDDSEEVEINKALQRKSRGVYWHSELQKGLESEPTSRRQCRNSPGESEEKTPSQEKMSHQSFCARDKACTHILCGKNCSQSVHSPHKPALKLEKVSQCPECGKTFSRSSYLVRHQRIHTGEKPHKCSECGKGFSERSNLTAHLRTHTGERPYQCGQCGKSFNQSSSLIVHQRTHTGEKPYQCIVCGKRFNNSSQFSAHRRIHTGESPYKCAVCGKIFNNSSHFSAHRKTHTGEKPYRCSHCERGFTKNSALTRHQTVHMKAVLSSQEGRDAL

effect of a mutation on the interaction | Variant
with no effect | S33F
with no effect | L22F
with no effect | G79R

Variants of: B2
Conditions: with zksc7_human ZKSCAN7, Q9P0L1
Chain of zksc7_human ZKSCAN7, Q9P0L1 (Q9P0L1 whole entry): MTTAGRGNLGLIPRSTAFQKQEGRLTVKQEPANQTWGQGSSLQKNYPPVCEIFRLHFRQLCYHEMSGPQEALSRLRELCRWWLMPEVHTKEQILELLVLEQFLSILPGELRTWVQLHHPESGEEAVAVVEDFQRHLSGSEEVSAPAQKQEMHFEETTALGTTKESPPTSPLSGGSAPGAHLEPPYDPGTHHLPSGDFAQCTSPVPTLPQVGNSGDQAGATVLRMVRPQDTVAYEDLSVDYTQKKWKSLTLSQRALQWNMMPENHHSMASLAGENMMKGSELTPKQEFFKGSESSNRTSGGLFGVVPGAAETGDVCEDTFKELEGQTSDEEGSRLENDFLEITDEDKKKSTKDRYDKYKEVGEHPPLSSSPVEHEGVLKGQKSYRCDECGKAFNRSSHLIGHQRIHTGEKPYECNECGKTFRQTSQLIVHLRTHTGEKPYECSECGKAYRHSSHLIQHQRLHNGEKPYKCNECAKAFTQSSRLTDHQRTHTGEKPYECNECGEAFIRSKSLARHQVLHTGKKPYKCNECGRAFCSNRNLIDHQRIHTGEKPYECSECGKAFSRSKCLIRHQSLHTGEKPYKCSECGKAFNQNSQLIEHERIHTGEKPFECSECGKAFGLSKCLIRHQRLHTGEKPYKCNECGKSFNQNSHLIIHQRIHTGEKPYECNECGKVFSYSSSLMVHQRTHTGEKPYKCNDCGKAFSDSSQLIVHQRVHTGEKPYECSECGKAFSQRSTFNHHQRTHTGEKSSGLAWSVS

effect of a mutation on the interaction | Variant
with no effect | S33F
with no effect | L22F
with no effect | G79R

Variants of: B2
Conditions: with znf24_human ZNF24, P17028
Chain of znf24_human ZNF24, P17028 (P17028 whole entry): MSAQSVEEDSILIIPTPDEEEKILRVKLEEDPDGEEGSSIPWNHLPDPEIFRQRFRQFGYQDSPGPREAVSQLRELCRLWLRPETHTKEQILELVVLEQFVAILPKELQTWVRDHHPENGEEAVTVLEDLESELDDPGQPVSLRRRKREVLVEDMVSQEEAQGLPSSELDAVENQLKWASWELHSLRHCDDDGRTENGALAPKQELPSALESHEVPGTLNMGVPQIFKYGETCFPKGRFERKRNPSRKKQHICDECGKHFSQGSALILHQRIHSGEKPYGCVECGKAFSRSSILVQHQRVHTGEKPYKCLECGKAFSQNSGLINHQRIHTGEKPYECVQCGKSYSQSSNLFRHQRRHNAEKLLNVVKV

effect of a mutation on the interaction | Variant
with no effect | S33F
with no effect | L22F
disrupting interaction strength | G79R

Variants of: B2
Conditions: with zn496_human ZNF496, Q96IT1
Chain of zn496_human ZNF496, Q96IT1 (Q96IT1 whole entry): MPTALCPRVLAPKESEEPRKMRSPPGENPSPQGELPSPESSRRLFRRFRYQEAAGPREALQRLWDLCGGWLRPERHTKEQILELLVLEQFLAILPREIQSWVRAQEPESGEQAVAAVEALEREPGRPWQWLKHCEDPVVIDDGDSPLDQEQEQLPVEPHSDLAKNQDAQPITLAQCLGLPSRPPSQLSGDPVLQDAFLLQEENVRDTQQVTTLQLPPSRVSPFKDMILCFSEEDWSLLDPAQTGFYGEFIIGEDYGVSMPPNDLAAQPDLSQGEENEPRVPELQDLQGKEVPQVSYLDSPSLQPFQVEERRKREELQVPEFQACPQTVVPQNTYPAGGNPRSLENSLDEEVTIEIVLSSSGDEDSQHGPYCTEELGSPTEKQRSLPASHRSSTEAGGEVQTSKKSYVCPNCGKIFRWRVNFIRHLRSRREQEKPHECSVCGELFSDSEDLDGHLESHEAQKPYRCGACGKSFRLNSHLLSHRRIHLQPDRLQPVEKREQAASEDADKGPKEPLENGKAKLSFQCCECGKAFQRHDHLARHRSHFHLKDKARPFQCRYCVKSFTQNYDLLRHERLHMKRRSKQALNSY

effect of a mutation on the interaction | Variant
with no effect | S33F
with no effect | L22F
with no effect | G79R

Variants of: B3
Conditions: with kr103_human KRTAP10-3, P60369

effect of a mutation on the interaction | Variant
with no effect | L155F
with no effect | Q500R
with no effect | G267R
with no effect | N576S

Variants of: B4
Conditions: with gors2_human GORASP2, Q9H8Y8

effect of a mutation on the interaction | Variant
with no effect | D183H
with no effect | E43D

Variants of: B4
Conditions: with prps2_human PRPS2, P11908

effect of a mutation on the interaction | Variant
disrupting interaction strength | D183H
disrupting interaction strength | E43D

Variants of: B4
Conditions: with gors2_human GORASP2, Q9H8Y8
Remark: another data set of the same source

effect of a mutation on the interaction | Variant
with no effect | D203H

Variants of: B4
Conditions: with prps2_human PRPS2, P11908
Remark: another data set of the same source

effect of a mutation on the interaction | Variant
disrupting interaction strength | D203H

Variants of: B5
Conditions: with imp3_human IMP3, Q9NV31

effect of a mutation on the interaction | Variant
with no effect | S688L
with no effect | R8Q

Reference: IntAct's records for PubMed 31515488
